Reference: US20030219441A1

Legend:
[1] = biological target: Recombinant human truncated Tissue Factor (tTF) (human) (UniProt P13726); assay: cell-based or functional assay
[2] = biological target: I-A^d MHC Class II antigen on A20 cells (mouse) (UniProt P04228); assay: 125I-labelled Fab' binding to A20 cells
[3] = biological target: I-A^d MHC Class II antigen on A20 cells (mouse) (UniProt P04228); assay: method not given
[4] = biological target: Recombinant human truncated Tissue Factor (tTF) (human) (UniProt P13726); assay: 125I-tTF (in molar excess) tethered to A20 cells (I-A^d) through the bispecific antibody, at saturation

Chain of UniProt P13726 (P13726 33-251): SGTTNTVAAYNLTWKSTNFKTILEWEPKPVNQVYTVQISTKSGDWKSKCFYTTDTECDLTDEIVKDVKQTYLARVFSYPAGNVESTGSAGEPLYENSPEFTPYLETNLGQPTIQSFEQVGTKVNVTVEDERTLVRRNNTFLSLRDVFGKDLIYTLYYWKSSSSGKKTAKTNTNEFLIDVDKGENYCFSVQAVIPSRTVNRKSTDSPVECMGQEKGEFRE
Chain of UniProt P04228 (P04228 24-256, chain 1 of 2): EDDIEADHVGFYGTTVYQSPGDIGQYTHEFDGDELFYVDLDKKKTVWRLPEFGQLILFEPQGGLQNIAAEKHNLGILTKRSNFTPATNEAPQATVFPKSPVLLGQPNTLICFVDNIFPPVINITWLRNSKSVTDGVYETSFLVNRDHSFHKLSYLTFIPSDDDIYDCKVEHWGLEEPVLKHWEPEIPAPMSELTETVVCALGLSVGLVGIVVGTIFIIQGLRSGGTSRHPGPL
Chain of UniProt P04228 (P01921 28-265, chain 2 of 2, further chain): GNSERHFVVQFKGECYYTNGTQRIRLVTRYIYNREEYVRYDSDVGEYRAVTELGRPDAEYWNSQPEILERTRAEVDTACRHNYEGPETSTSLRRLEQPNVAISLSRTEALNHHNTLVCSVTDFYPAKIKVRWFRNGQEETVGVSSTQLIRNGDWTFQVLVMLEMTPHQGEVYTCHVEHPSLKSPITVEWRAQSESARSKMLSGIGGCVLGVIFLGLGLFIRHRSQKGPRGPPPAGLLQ

Substance 10H10 F(ab')2 has a Coagulation time (sec) of mouse plasma added to A20 cells incubated with the reagents [1] of 160 s.
Work on B21-2 Fab′ yielded a Coagulation time (sec) of mouse plasma added to A20 cells incubated with the reagents [1] of 165 s and a concentration at which saturation of binding is reached [2] of 21.5 nM.
For B21-2 antibody, the fold better affinity than M5/114 [3] was 10 fold.
Work on B21-2/10H10 bispecific antibody yielded a Coagulation time (sec) of mouse plasma added to A20 cells incubated with the reagents [1] of 36 s, a coagulation time of mouse plasma, A20 cells incubated with 21.5 nM bispecific antibody and 69 nM tTF [1] of 60 s and a molecules of tTF bound per A20 cell (molecules per cell) [4] of 310000.
With B21-2 F(ab')2 the Coagulation time (sec) of mouse plasma added to A20 cells incubated with the reagents [1] was 168 s.
For SFR8/10H10 bispecific antibody, the Coagulation time (sec) of mouse plasma added to A20 cells incubated with the reagents [1] was 154 s and the coagulation time of mouse plasma, A20 cells incubated with 21.5 nM bispecific antibody and 69 nM tTF [1] was 140 s.
B21-2/OX7 bispecific antibody showed a Coagulation time (sec) of mouse plasma added to A20 cells incubated with the reagents [1] of 165 s and a coagulation time of mouse plasma, A20 cells incubated with 21.5 nM bispecific antibody and 69 nM tTF [1] of 140 s.
10H10 Fab' was tested, and the Coagulation time (sec) of mouse plasma added to A20 cells incubated with the reagents [1] was 162 s.
